Measured values from patent publication US20220332795A1 (ARO BIOTHERAPEUTICS, published 2022).
Changes are numbered by the printed parent chain.

B1: SEQ ID NO 103 (designed binder)
chain: MLPAPKNLVVSRVTEDSARLSWTAPDAAFDSFHIVYHEPRPSGEAIWLHVPGSERSYDLTGLKPGTEYEVGIVSVKGGDLSVPLVAFFTT
notes: FN3 domain
B2: SEQ ID NO 168 (designed binder)
chain: MLPAPKNLVVSRVTEDSARLSWTAPDAAFDSFYIAYAEPRPDGEAILLDVPGSERSYDLTGLKPGTEYSVLIHGVKGGLLSSPLSAIFTT
notes: FN3 domain
B3: SEQ ID NO 138 (designed binder)
chain: B2 chain with A4T, L47Q, D49R, S85H, I87S
notes: FN3 domain
B4: SEQ ID NO 112 (designed binder)
chain: B2 chain with D49L
notes: FN3 domain
B5: SEQ ID NO 128 (designed binder)
chain: B2 chain with L47V, D49R, S85I, I87S
notes: FN3 domain
B6: SEQ ID NO 144 (designed binder)
chain: B2 chain with L47G, D49Y, S85G, I87F
notes: FN3 domain
B7: SEQ ID NO 134 (designed binder)
chain: B2 chain with L47G, D49Q
notes: FN3 domain
B8: SEQ ID NO 143 (designed binder)
chain: B2 chain with D49F, S85V, I87H
notes: FN3 domain
B9: SEQ ID NO 127 (designed binder)
chain: B2 chain with L47F, D49G
notes: FN3 domain
B10: SEQ ID NO 122 (designed binder)
chain: B2 chain with L47I, D49V, I87H
notes: FN3 domain
B11: SEQ ID NO 119 (designed binder)
chain: B2 chain with L47N, S85V, I87E
notes: FN3 domain
B12: SEQ ID NO 118 (designed binder)
chain: B2 chain with L47W, D49V, S85V, I87S
notes: FN3 domain
B13: SEQ ID NO 125 (designed binder)
chain: B2 chain with L47A, D49H, S85V, I87F
notes: FN3 domain
B14: SEQ ID NO 135 (designed binder)
chain: B2 chain with L47Q, D49A, S85H, I87F
notes: FN3 domain
B15: SEQ ID NO 132 (designed binder)
chain: B2 chain with Y33F, A35P, R40S, D42T, L47V, D49T, I87H
notes: FN3 domain
B16: SEQ ID NO 137 (designed binder)
chain: B2 chain with L47V, S85V, I87E
notes: FN3 domain
B17: SEQ ID NO 116 (designed binder)
chain: B2 chain with L47Q, D49V
notes: FN3 domain
B18: SEQ ID NO 124 (designed binder)
chain: B2 chain with L47Q, D49H, S85L, I87S
notes: FN3 domain
B19: SEQ ID NO 145 (designed binder)
chain: B2 chain with D49Q, S85T
notes: FN3 domain
B20: SEQ ID NO 113 (designed binder)
chain: B2 chain with L47N, D49Q, S85V, I87F
notes: FN3 domain
B21: SEQ ID NO 106 (designed binder)
chain: B2 chain with S85Y, I87S
notes: FN3 domain
B22: SEQ ID NO 129 (designed binder)
chain: B2 chain with L47N, D49W, S85D, I87S
notes: FN3 domain
B23: SEQ ID NO 120 (designed binder)
chain: B2 chain with L47H, D49S, S85V
notes: FN3 domain
B24: SEQ ID NO 104 (designed binder)
chain: B2 chain with L47S, D49L, S85Y, I87V
notes: FN3 domain
B25: SEQ ID NO 117 (designed binder)
chain: B2 chain with L47T
notes: FN3 domain
B26: SEQ ID NO 133 (designed binder)
chain: B2 chain with L47Y, D49Y, S85D, I87F
notes: FN3 domain
B27: SEQ ID NO 141 (designed binder)
chain: B2 chain with L47F, D49G, S85I, I87F
notes: FN3 domain
B28: SEQ ID NO 131 (designed binder)
chain: B2 chain with L47H, D49W, S85I, I87H
notes: FN3 domain
B29: SEQ ID NO 105 (designed binder)
chain: B2 chain with L47F, D49V, S85H, I87N
notes: FN3 domain

Each binder was assayed against T1, recombinant biotinylated human CD71 extracellular domain (human, UniProt P02786 89-760, biotinylated) (assay: solution ELISA, signal ratio to HSA).
T1 construct: extracellular domain; also called hCD71; huCD71 ECD
T1 sequence (P02786 other isoform, or with tags, fused parts or gaps): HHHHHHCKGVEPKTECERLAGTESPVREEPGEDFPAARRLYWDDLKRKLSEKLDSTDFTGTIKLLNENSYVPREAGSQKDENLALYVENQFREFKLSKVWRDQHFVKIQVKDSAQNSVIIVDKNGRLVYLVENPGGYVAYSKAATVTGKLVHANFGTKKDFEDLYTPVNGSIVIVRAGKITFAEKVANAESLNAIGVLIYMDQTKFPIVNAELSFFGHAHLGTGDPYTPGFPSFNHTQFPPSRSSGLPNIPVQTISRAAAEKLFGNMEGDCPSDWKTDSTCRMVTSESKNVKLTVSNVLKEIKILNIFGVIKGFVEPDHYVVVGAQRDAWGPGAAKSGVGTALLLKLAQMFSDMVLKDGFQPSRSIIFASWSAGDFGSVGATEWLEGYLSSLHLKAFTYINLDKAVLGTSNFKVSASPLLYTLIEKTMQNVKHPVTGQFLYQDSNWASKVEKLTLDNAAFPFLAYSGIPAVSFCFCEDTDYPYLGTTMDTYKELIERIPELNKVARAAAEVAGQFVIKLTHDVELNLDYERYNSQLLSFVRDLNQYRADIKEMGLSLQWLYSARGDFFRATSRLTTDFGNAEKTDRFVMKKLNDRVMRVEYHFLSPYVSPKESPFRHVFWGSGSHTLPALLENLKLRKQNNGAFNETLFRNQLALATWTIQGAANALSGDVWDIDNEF

| hCD71:HSA | Binder |
| --- | --- |
| 28.2 | B1 |
| 271 | B2 |
| 74.3 | B3 |
| 413 | B4 |
| 121 | B5 |
| 30.8 | B6 |
| 36.7 | B7 |
| 157 | B8 |
| 66.3 | B9 |
| 351 | B10 |
| 57.6 | B11 |
| 120 | B12 |
| 76.2 | B13 |
| 42.1 | B14 |
| 43.2 | B15 |
| 268 | B16 |
| 37.1 | B17 |
| 63.1 | B18 |
| 348 | B19 |
| 42.6 | B20 |
| 118 | B21 |
| 13.8 | B22 |
| 42.5 | B23 |
| 89.8 | B24 |
| 75.4 | B25 |
| 41 | B26 |
| 37 | B27 |
| 10.3 | B28 |
| 142 | B29 |

Each binder was assayed against T2, CD71 apical domain (UniProt P02786 189-383, limits assumed) (assay: solution ELISA, signal ratio to HSA).
T2 construct: domain: Apical domain
T2 sequence (P02786 189-383 limits assumed): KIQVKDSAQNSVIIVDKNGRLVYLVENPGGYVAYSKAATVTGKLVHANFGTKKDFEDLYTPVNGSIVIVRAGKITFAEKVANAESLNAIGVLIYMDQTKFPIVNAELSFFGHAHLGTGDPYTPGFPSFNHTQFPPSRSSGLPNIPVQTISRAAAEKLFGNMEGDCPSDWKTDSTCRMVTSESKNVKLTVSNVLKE

| apical domain:HSA | Binder |
| --- | --- |
| 143 | B1 |
| 468 | B2 |
| 369 | B3 |
| 709 | B4 |
| 209 | B5 |
| 234 | B6 |
| 309 | B7 |
| 363 | B8 |
| 292 | B9 |
| 592 | B10 |
| 228 | B11 |
| 459 | B12 |
| 327 | B13 |
| 263 | B14 |
| 180 | B15 |
| 412 | B16 |
| 427 | B17 |
| 224 | B18 |
| 466 | B19 |
| 196 | B20 |
| 176 | B21 |
| 264 | B22 |
| 487 | B23 |
| 559 | B24 |
| 312 | B25 |
| 186 | B26 |
| 190 | B27 |
| 269 | B28 |
| 397 | B29 |

Each binder was assayed against T1, recombinant biotinylated human CD71 … (assay: solution ELISA).

| hCD71, RLU | Binder |
| --- | --- |
| 818000 RLU | B1 |
| 3.97e+06 RLU | B2 |
| 1.08e+06 RLU | B3 |
| 4.48e+06 RLU | B4 |
| 4.31e+06 RLU | B5 |
| 516000 RLU | B6 |
| 640000 RLU | B7 |
| 3.25e+06 RLU | B8 |
| 1.41e+06 RLU | B9 |
| 4.77e+06 RLU | B10 |
| 1.25e+06 RLU | B11 |
| 1.73e+06 RLU | B12 |
| 1.23e+06 RLU | B13 |
| 967000 RLU | B14 |
| 1.78e+06 RLU | B15 |
| 5.11e+06 RLU | B16 |
| 428000 RLU | B17 |
| 1.54e+06 RLU | B18 |
| 6.2e+06 RLU | B19 |
| 1.27e+06 RLU | B20 |
| 4.97e+06 RLU | B21 |
| 219000 RLU | B22 |
| 501000 RLU | B23 |
| 947000 RLU | B24 |
| 1.3e+06 RLU | B25 |
| 1.04e+06 RLU | B26 |
| 965000 RLU | B27 |
| 203000 RLU | B28 |
| 2.43e+06 RLU | B29 |

Each binder was assayed against T2, CD71 apical domain (assay: solution ELISA).

| Apical domain, RLU | Binder |
| --- | --- |
| 4.14e+06 RLU | B1 |
| 6.86e+06 RLU | B2 |
| 5.35e+06 RLU | B3 |
| 7.7e+06 RLU | B4 |
| 7.41e+06 RLU | B5 |
| 3.91e+06 RLU | B6 |
| 5.39e+06 RLU | B7 |
| 7.51e+06 RLU | B8 |
| 6.24e+06 RLU | B9 |
| 8.06e+06 RLU | B10 |
| 4.93e+06 RLU | B11 |
| 6.58e+06 RLU | B12 |
| 5.26e+06 RLU | B13 |
| 6.05e+06 RLU | B14 |
| 7.43e+06 RLU | B15 |
| 7.87e+06 RLU | B16 |
| 4.93e+06 RLU | B17 |
| 5.46e+06 RLU | B18 |
| 8.3e+06 RLU | B19 |
| 5.83e+06 RLU | B20 |
| 7.37e+06 RLU | B21 |
| 4.18e+06 RLU | B22 |
| 5.75e+06 RLU | B23 |
| 5.9e+06 RLU | B24 |
| 5.36e+06 RLU | B25 |
| 4.74e+06 RLU | B26 |
| 4.96e+06 RLU | B27 |
| 5.28e+06 RLU | B28 |
| 6.79e+06 RLU | B29 |
